The results in this text go back to the supplement of paper PMC5998384.

The test system of data set [1] is HeLa Kyoto. Briefly: solubility change mitosis vs G1/S (difference of NP-40 vs SDS log2 ratios) (log2 ratio difference); higher = more soluble in mitosis.
Data set [2] concerns HeLa Kyoto. Description: melting temperature (median over replicates), in situ; higher = more thermally stable.
For data set [3], the system named is HeLa Kyoto. Briefly: solubility in G1/S (NP-40 vs SDS abundance) (log2 ratio); higher = more soluble. Conditions: cell cycle stage: G1/S.
Data set [4] relates to HeLa Kyoto. Description: thermal stability score vs G1/S (z-score of summed log2 fold changes over temperatures); higher = more thermally stable than in G1/S.
Where [5] appears, read: cell cycle stage: early G1 (4.5 h after nocodazole release).
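For melting temperature (median over replicates), in situ in this document: HeLa Kyoto cells synchronized by double thymidine or nocodazole block, proteins quantified by TMT10plex mass spectrometry, three independent biological replicates.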
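For solubility change mitosis vs G1/S (difference of NP-40 vs SDS log2 ratios) in this document: synchronized HeLa Kyoto cells (double thymidine block for G1/S, nocodazole release for mitosis), protein amounts in NP-40 versus SDS lysates quantified by mass spectrometry, three biological replicates.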
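For solubility in G1/S (NP-40 vs SDS abundance) in this document: HeLa Kyoto cells arrested at G1/S by double thymidine block, proteins quantified by TMT10plex mass spectrometry in mild NP-40 versus SDS extracts, three biological replicates.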
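For thermal stability score vs G1/S (z-score of summed log2 fold changes over temperatures) in this document: synchronized HeLa Kyoto cells, proteins quantified by TMT10plex mass spectrometry, three biological replicates, mitosis taken 0.5 h after nocodazole release, G1/S directly after double thymidine block.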

For the sequence “MSTLYVSPHPDAFPSLRALIAARYGEAGEGPGWGGAHPRICLQPPPTSRTPFPPPRLPALEQGPGGLWVWGATAVAQLLWPAGLGGPGGSRAAVLVQQWVSYADTELIPAACGATLPALGLRSSAQDPQAVLGALGRALSPLEEWLRLHTYLAGEAPTLADLAAVTALLLPFRYVLDPPARRIWNNVTRWFVTCVRQPEFRAVLGEVVLYSGARPLSHQPGPEAPALPKTAAQLKKEAKKREKLEKFQQKQKIQQQQPPPGEKKPKPEKREKRDPGVITYDLPTPPGEKKDVSGPMPDSYSPRYVEAAWYPWWEQQGFFKPEYGRPNVSAANPRGVFMMCIPPPNVTGSLHLGHALTNAIQDSLTRWHRMRGETTLWNPGCDHAGIATQVVVEKKLWREQGLSRHQLGREAFLQEVWKWKEEKGDRIYHQLKKLGSSLDWDRACFTMDPKLSAAVTEAFVRLHEEGIIYRSTRLVNWSCTLNSAISDIEVDKKELTGRTLLSVPGYKEKVEFGVLVSFAYKVQGSDSDEEVVVATTRIETMLGDVAVAVHPKDTRYQHLKGKNVIHPFLSRSLPIVFDEFVDMDFGTGAVKITPAHDQNDYEVGQRHGLEAISIMDSRGALINVPPPFLGLPRFEARKAVLVALKERGLFRGIEDNPMVVPLCNRSKDVVEPLLRPQWYVRCGEMAQAASAAVTRGDLRILPEAHQRTWHAWMDNIREWCISRQLWWGHRIPAYFVTVSDPAVPPGEDPDGRYWVSGRNEAEAREKAAKEFGVSPDKISLQQDEDVLDTWFSSGLFPLSILGWPNQSEDLSVFYPGTLLETGHDILFFWVARMVMLGLKLTGRLPFREVYLHAIVRDAHGRKMSKSLGNVIDPLDVIYGISLQGLHNQLLNSNLDPSEVEKAKEGQKADFPAGIPECGTDALRFGLCAYMSQGRDINLDVNRILGYRHFCNKLWNATKFALRGLGKGFVPSPTSQPGGHESLVDRWIRSRLTEAVRLSNQGFQAYDFPAVTTAQYSFWLYELCDVYLECLKPVLNGVDQVAAECARQTLYTCLDVGLRLLSPFMPFVTEELFQRLPRRMPQAPPSLCVTPYPEPSECSWKDPEAEAALELALSITRAVRSLRADYNLTRIRPDCFLEVADEATGALASAVSGYVQALASAGVVAVLALGAPAPQGCAVALASDRCSIHLQLQGLVDPARELGKLQAKRVEAQRQAQRLRERRAASGYPVKVPLEVQEADEAKLQQTEAELRKVDEAIALFQKML [VARS]”, the “solubility change mitosis (log2)” value in the data set on HeLa Kyoto [1] is -0.183. Moreover, the melting temperature came out at 51 °C in the data set with HeLa Kyoto [2] (cell cycle stage: G1/S) and 50.5 °C in the data set with HeLa Kyoto [2] (cell cycle stage: mitosis). Besides, the “solubility in G1/S (log2)” value in the data set on HeLa Kyoto [3] is -0.0962. Further, the thermal stability score with HeLa Kyoto [4] (setting [5]) is -0.359; in the data set on HeLa Kyoto [4] (cell cycle stage: mitosis) it was -0.482.

For “MSVGFIGAGQLAFALAKGFTAAGVLAAHKIMASSPDMDLATVSALRKMGVKLTPHNKETVQHSDVLFLAVKPHIIPFILDEIGADIEDRHIVVSCAAGVTISSIEKKLSAFRPAPRVIRCMTNTPVVVREGATVYATGTHAQVEDGRLMEQLLSSVGFCTEVEEDLIDAVTGLSGSGPAYAFTALDALADGGVKMGLPRRLAVRLGAQALLGAAKMLLHSEQHPGQLKDNVSSPGGATIHALHVLESGGFRSLLINAVEASCIRTRELQSMADQEQVSPAAIKKTILDKVKLDSPAGTALSPSGHTKLLPRSLAPAGKD [PYCR1]”, in the data set with HeLa Kyoto [1], the “solubility change mitosis (log2)” value was -0.0764. Moreover, the melting temperature came to 54.9 °C in the data set with HeLa Kyoto [2] (cell cycle stage: G1/S) and 53.7 °C with HeLa Kyoto [2] (cell cycle stage: mitosis). The “solubility in G1/S (log2)” value in the data set with HeLa Kyoto [3] worked out at 0.208. Further, the thermal stability score in the data set with HeLa Kyoto [4] (setting [5]) was 0.0884; in the data set on HeLa Kyoto [4] (cell cycle stage: mitosis), -3.11.

As to “MSVLGEYERHCDSINSDFGSESGGCGDSSPGPSASQGPRAGGGAAEQEELHYIPIRVLGRGAFGEATLYRRTEDDSLVVWKEVDLTRLSEKERRDALNEIVILALLQHDNIIAYYNHFMDNTTLLIELEYCNGGNLYDKILRQKDKLFEEEMVVWYLFQIVSAVSCIHKAGILHRDIKTLNIFLTKANLIKLGDYGLAKKLNSEYSMAETLVGTPYYMSPELCQGVKYNFKSDIWAVGCVIFELLTLKRTFDATNPLNLCVKIVQGIRAMEVDSSQYSLELIQMVHSCLDQDPEQRPTADELLDRPLLRKRRREMEEKVTLLNAPTKRPRSSTVTEAPIAVVTSRTSEVYVWGGGKSTPQKLDVIKSGCSARQVCAGNTHFAVVTVEKELYTWVNMQGGTKLHGQLGHGDKASYRQPKHVEKLQGKAIRQVSCGDDFTVCVTDEGQLYAFGSDYYGCMGVDKVAGPEVLEPMQLNFFLSNPVEQVSCGDNHVVVLTRNKEVYSWGCGEYGRLGLDSEEDYYTPQKVDVPKALIIVAVQCGCDGTFLLTQSGKVLACGLNEFNKLGLNQCMSGIINHEAYHEVPYTTSFTLAKQLSFYKIRTIAPGKTHTAAIDERGRLLTFGCNKCGQLGVGNYKKRLGINLLGGPLGGKQVIRVSCGDEFTIAATDDNHIFAWGNGGNGRLAMTPTERPHGSDICTSWPRPIFGSLHHVPDLSCRGWHTILIVEKVLNSKTIRSNSSGLSIGTVFQSSSPGGGGGGGGGEEEDSQQESETPDPSGGFRGTMEADRGMEGLISPTEAMGNSNGASSSCPGWLRKELENAEFIPMPDSPSPLSAAFSESEKDTLPYEELQGLKVASEAPLEHKPQVEASSPRLNPAVTCAGKGTPLTPPACACSSLQVEVERLQGLVLKCLAEQQKLQQENLQIFTQLQKLNKKLEGGQQVGMHSKGTQTAKEEMEMDPKPDLDSDSWCLLGTDSCRPSL [NEK9]”, the “solubility change mitosis (log2)” value in the data set with HeLa Kyoto [1] is -0.102. Further, the figures for the melting temperature with HeLa Kyoto [2] (cell cycle stage: G1/S) and in the data set on HeLa Kyoto [2] (cell cycle stage: mitosis) were 51 °C and 51.2 °C, respectively. Besides, in the data set on HeLa Kyoto [3], the “solubility in G1/S (log2)” value was -0.134. In addition, the thermal stability score in the data set on HeLa Kyoto [4] (setting [5]) is 0.358; in the data set with HeLa Kyoto [4] (cell cycle stage: mitosis), -0.633.

With “MSVLLRSGLGPLCAVARAAIPFIWRGKYFSSGNEPAENPVTPMLRHLMYKIKSTGPITVAEYMKEVLTNPAKGYYVYRDMLGEKGDFITSPEISQIFGELLGIWFISEWMATGKSTAFQLVELGPGRGTLVGDILRVFTQLGSVLKNCDISVHLVEVSQKLSEIQALTLTKEKVPLERNAGSPVYMKGVTKSGIPISWYRDLHDVPKGYSFYLAHEFFDVLPVHKFQKTPQGWREVFVDIDPQVSDKLRFVLAPSATPAEAFIQHDETRDHVEVCPDAGVIIEELSQRIALTGGAALVADYGHDGTKTDTFRGFCDHKLHDVLIAPGTADLTADVDFSYLRRMAQGKVASLGPIKQHTFLKNMGIDVRLKVLLDKSNEPSVRQQLLQGYDMLMNPKKMGERFNFFALLPHQRLQGGRYQRNARQSKPFASVVAGFSELAWQ [NDUFAF7]”, the “solubility change mitosis (log2)” value in the data set with HeLa Kyoto [1] is -0.162. In addition, the melting temperature in the data set with HeLa Kyoto [2] (cell cycle stage: G1/S) came to 49.2 °C; with HeLa Kyoto [2] (cell cycle stage: mitosis), 49 °C. In addition, the “solubility in G1/S (log2)” value with HeLa Kyoto [3] turned out to be 0.278. In addition, the results for the thermal stability score in the data set on HeLa Kyoto [4] (setting [5]) and with HeLa Kyoto [4] (cell cycle stage: mitosis) were 0.103 and 1.08, respectively.

For “MSVNSEKSSSSERPEPQQKAPLVPPPPPPPPPPPPPLPDPTPPEPEEEILGSDDEEQEDPADYCKGGYHPVKIGDLFNGRYHVIRKLGWGHFSTVWLCWDMQGKRFVAMKVVKSAQHYTETALDEIKLLKCVRESDPSDPNKDMVVQLIDDFKISGMNGIHVCMVFEVLGHHLLKWIIKSNYQGLPVRCVKSIIRQVLQGLDYLHSKCKIIHTDIKPENILMCVDDAYVRRMAAEATEWQKAGAPPPSGSAVSTAPQQKPIGKISKNKKKKLKKKQKRQAELLEKRLQEIEELEREAERKIIEENITSAAPSNDQDGEYCPEVKLKTTGLEEAAEAETAKDNGEAEDQEEKEDAEKENIEKDEDDVDQELANIDPTWIESPKTNGHIENGPFSLEQQLDDEDDDEEDCPNPEEYNLDEPNAESDYTYSSSYEQFNGELPNGRHKIPESQFPEFSTSLFSGSLEPVACGSVLSEGSPLTEQEESSPSHDRSRTVSASSTGDLPKAKTRAADLLVNPLDPRNADKIRVKIADLGNACWVHKHFTEDIQTRQYRSIEVLIGAGYSTPADIWSTACMAFELATGDYLFEPHSGEDYSRDEDHIAHIIELLGSIPRHFALSGKYSREFFNRRGELRHITKLKPWSLFDVLVEKYGWPHEDAAQFTDFLIPMLEMVPEKRASAGECLRHPWLNS [SRPK2]”, in the data set with HeLa Kyoto [1], the “solubility change mitosis (log2)” value turned out to be 0.0499. Further, the melting temperature with HeLa Kyoto [2] (cell cycle stage: G1/S) was 53.3 °C; in the data set on HeLa Kyoto [2] (cell cycle stage: mitosis), 52.2 °C. Besides, the “solubility in G1/S (log2)” value with HeLa Kyoto [3] is -0.405. Besides, the thermal stability score is -3.22 in the data set with HeLa Kyoto [4] (setting [5]) and -4.46 with HeLa Kyoto [4] (cell cycle stage: mitosis).
